Data: article PMC4351601, “Structural basis for self-assembly of a cytolytic pore lined by protein and lipid” (Nature Communications, 2015)

Legend:
[1] = target: the molecule itself; assay: cell-based or functional assay
[2] = target: the molecule itself; assay: crystal structure; transmembrane pore; water-soluble FraC incubated with lipid vesicles, solubilised and purified in detergent (DDM 0.015%), crystallised by the lipid sponge phase method, 20 °C; 3.1 Å; 24 bound lipids modelled as SM
[3] = target: the molecule itself; assay: crystal structure; dimeric form (assembly intermediate); crystals with 100 mM POC, 3 mM DDM, 200 mM Li2SO4, PEG 8,000, sodium acetate pH 4.1-4.3; two crystal forms, 1.57 and 1.60 Å

Row | Protein | haemolytic activity (horse erythrocytes), relative to wild-type FraC [1] | stoichiometry N [2] | stoichiometry N [3]
1 | FraC mutein V60E/W149A (natural protein) SADVAGAVIDGAGLGFDVLKTVLEALGNVKRKIAVGIDNESGKTWTAMNTYFRSGTSDIELPHKVAHGKALLYNGQKNRGPVATGVVGVIAYSMSDGNTLAVLFSVPYDYNWYSNWWNVRVYKGQKRADQRMYEELYYHRSPFRGDNGAHSRGLGYGLKSRGFMNSSGHAILEIHVTKA | ~16 % of wild type | – | –
2 | fragaceatoxin C (FraC), wild type (natural protein, no tag is mentioned; also called water-soluble FraC; monomeric FraC; source: E. coli BL21 (DE3), purified (Resource S cation exchange, Superdex 75 SEC)) SADVAGAVIDGAGLGFDVLKTVLEALGNVKRKIAVGIDNESGKTWTAMNTYFRSGTSDIVLPHKVAHGKALLYNGQKNRGPVATGVVGVIAYSMSDGNTLAVLFSVPYDYNWYSNWWNVRVYKGQKRADQRMYEELYYHRSPFRGDNGWHSRGLGYGLKSRGFMNSSGHAILEIHVTKA | – | 8 | 2
3 | FraC mutein V8C/K69C, oxidised (engineered disulfide bond between the N-terminal and beta-core regions) (natural protein) SADVAGACIDGAGLGFDVLKTVLEALGNVKRKIAVGIDNESGKTWTAMNTYFRSGTSDIVLPHKVAHGCALLYNGQKNRGPVATGVVGVIAYSMSDGNTLAVLFSVPYDYNWYSNWWNVRVYKGQKRADQRMYEELYYHRSPFRGDNGWHSRGLGYGLKSRGFMNSSGHAILEIHVTKA | 1 % of wild type | – | –
